In the supplement of paper PMC9170038:

Test system: MS2 coat protein
Assay: apparent KD of MS2 coat protein; higher = weaker reporter binding
Conditions: Eterna round: R107
Procedure, shortened: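 Illumina sequencing clusters were used for on-chip transcription of designed RNA switches. Titration with SNAP-549-labelled MS2 coat protein followed, in twofold steps from 0.7 or 1.5 nM to 3 µM in 100 mM Tris-HCl pH 7.5, 80 mM KCl, 4 mM MgCl2, without or with constant ligand. Apparent KD is each design's median of fits to normalised cluster binding curves.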

[1] = input ligand: theophylline 20 uM
[2] = input ligand: theophylline 2 mM
[3] = input ligand: tryptophan 2.4 mM

| Sequence | apparent KD of MS2 coat protein (input ligand: arginine 13.2 mM) [nM] | apparent KD of MS2 coat protein (input ligand: none) [nM] | apparent KD of MS2 coat protein [1] [nM] | apparent KD of MS2 coat protein [2] [nM] | apparent KD of MS2 coat protein [3] [nM] |
| --- | --- | --- | --- | --- | --- |
| ACGUAAUGCAGAAGGAGCGUCUUUUUAAAACAUGAGGAUCACCCAUGUAAUAUUUAUGGGAGACAGGUAGGUCGCUGAAGUACGA [JR_SSArginiB_Sub006] | 30.3 | 23.5 | 32.3 | 22.3 | 25.3 |
| ACGUUGUAGUCGGCCGCCACUGUUUUCAUGUUCAACAUGAGGAUCACCCAUGUACCUUUUUUUAUCAGGACCGGGACGUAUUCGA [JR_SSTryptoB_Sub003] | 46.5 | – | 102 | 96.8 | – |
| ACUAGAGGUGGAAGGAGCGGGAGACAUGAGGAUCACAUGAGGAUCACCCAUGUAGGAUCAUCCCAGGUAGGUCGCCAUGUCGAAA [,mmlmullin] | 46 | 979 | 255 | 456 | 293 |
| ACUCGACCAUCAGCCAUUUGUGAAUCACGGCGAGGACCGGUACGGCCGCCACUCGACAUGAGGAUCACCCAUGUAAGACCGGUGU [vmullin3] | 24 | – | 37.8 | 39.6 | – |
| ACUCGGUGUUUGUUGCUCCGAGUGUAUGAUACCAGUUAGUUUUAUGGCCCUUGGCAGCAUAGGACAUGAGGAUCACCCAUGUGUU [#02 SameState-TheophyllineA] | 27.3 | – | 41.1 | – | 34.9 |
| ACUCGGUGUUUGUUGCUCCGAGUUUAUGAUACCAGUUAGUUUUAUGGCCCUUGGCAGCAUAGGACAUGAGGAUCACCCAUGUGUU [#03 SameState-TheophyllineA] | 26.2 | – | 38.6 | – | 32.2 |
| ACUUUGUCGGGUGAUACCAGCCUCGGCACAUCUCGUGCCGAACAUGAGGAUCACCCAUGUGGCCCUUGGCAGCACAUGACAAAUC [Isredior] | 70.1 | – | 522 | – | 423 |
| AGAAGUCCAGACUACACGUGGAAAAGCGAUACCAGACUCAUAGGUGUCCCUUGGCAGCGCGUAACAUGAGGAUCACCCAUGUGAU [theeternabot_exclusion_MS2_Theo_A_9] | 66.8 | – | 190 | – | 133 |
| AGACAUGAGGAUCACCCAUGUAGUACGGAUACCAGAUCCAGAUGCGUCCCUUGGCAGCUGUAGUACAGCGUUACGUCGCUCAUAG [Exclusion - Theophylline A (Freestyle 26)] | 20.3 | – | 48.1 | – | 28.4 |
| AGACAUGAGGAUCACCCAUGUAGUACGGAUACCAGAUCCAGAUGUAUCCCUUGGCAGCUGUGGUACAGCGUUACAUCGCUCCUAG [Exclusion - Theophylline A (Freestyle 20)] | 15.9 | – | 24.4 | – | 15.8 |
| AGACAUGAGGAUCACCCAUGUAGUAUGGAUACCAGAUCCAGAUUUAUCCCUUGGCAGCUGUGGUACAGCGUUGCAACGCUCCUAG [Exclusion - Theophylline A (Freestyle 14)] | 30.4 | – | 38.7 | – | 31.8 |
| AGAGAGGCGCAUGAUACCAGCUUGGCCUAACAUGAGGAUCACCCAUGUCAAUGGGCCUUAAGCCCUUGGCAGCAUAGGGUGUCCU [Xeestixexe] | 72.7 | 72.1 | 186 | 25.9 | 85.9 |
| AGAGAUGAACAUGAGGAUCACCCAUGUAAACGAGGACCGGUACGGCCGCCACUCGUGGGUGUAAUAGAAUAAUAAGAGAAUAAUA [Turkey 1] | 24.4 | 63.2 | 92 | 59.6 | 75.5 |
| AGAGUCAGACAAAAGUCUGGCUCAGCCGAAGGAGCGUCCGAAAGGACAGGUAGGUCGCGGUUACCUGAGGAUCACCCAGGUUCCU [ArgAS 24 #OpenEnded #AlternativeMS2] | 53.8 | 139 | 86.9 | 115 | 91.5 |
| AGAGUCUAGUCGGCCGCCACUCAUGUCCAAUGGACAUGAGGAUCACCCAUGUACCGAAGGUACAUGAGGACCGGGACUGGACUCA [Omei Tryp B SS C v6] | 43.6 | – | 496 | 330 | – |
| AGAGUUAGACAAAAGUCUAGCUCACCAGAAGGAGCGUCCGAAAGGACAGGUAGGUCGCUGGUGCACGAGGAUCACCCGUGUUCCU [ArgAS 21 #OpenEnded #AlternativeMS2] | 57.9 | 80.6 | 90.2 | 118 | 67.3 |
| AGAUCUUUCGAAAGAAGGAUCUUGUCUGAUACCAGAGACGAAAGUCUCCCUUGGCAGCAGUGCCAACAUGAGGAUCACCCAUGUA [Theophylline A 12] | 22 | – | 24.7 | – | 21.3 |

| Sequence | apparent KD of MS2 coat protein (input ligand: arginine 13.2 mM) [nM] | apparent KD of MS2 coat protein (input ligand: none) [nM] | apparent KD of MS2 coat protein [1] [nM] | apparent KD of MS2 coat protein [2] [nM] | apparent KD of MS2 coat protein [3] [nM] |
| --- | --- | --- | --- | --- | --- |
| AGAUUCGACACGGCCGCCACUCGUGACAGAUUUCGCAGUGGUCAACAUGAGGAUCACCCAUGUCUGAGGACCGGGUGUUGAGUCU [XTryp B #9] | 36.4 | – | 39.3 | 41.1 | – |
| AGAUUCGACACGGCCGCCACUCUACACGGAUUUCCGAGUGUCGAACAUGAGGAUCACCCAUGUGGGAGGACCGGGUGUUGAGUCU [XTryp B #11] | 164 | – | 704 | 944 | – |
| AGAUUCGACACGGCCGCCACUUGUGGUGGAGGGUCUUUAGUCACACAUGAGGAUCACCCAUGUACAAGGACCGGGUGUUGAGUCU [XTryp B #23] | 19.1 | 19.3 | 14.2 | 25.4 | 36.3 |
| AGAUUCGACACGGCCGCCACUUUCAGUGGCUGGUCACAUGGUGCACAUGAGGAUCACCCAUGUGGAAGGACCGGGUGUUGAGUCU [XTryp B #25] | 23 | – | 45.2 | 38.3 | – |
| AGCAAGCAACAUGAGGAUCACCCAUGUGAAGGAGCGCCGAAUAAGGCAGGUAGGUCGCACAUGAAUAAAUCAUGUAAAAGCUUGC [MAT - Exclusion Arginine A - Mod of Eli - D23] | 104 | 185 | 164 | 68.1 | 138 |
| AGCACUGUGACGGCCGCCACUACAUAAAUUGGGUGGUCAGGUUCAUUACAUGAGGAUCACCCAUGUAGGACCGGGUCUCAGUGCA [Omei Trp Exc B A v8] | 15.9 | 11.4 | 20.6 | 13.3 | 7.33 |
| AGCAGUACAACAGAUACCAGACUUUUAAUGCCUCUAAUUACAUGAGGAUCACCCAUGUUUGUCCCUUGGCAGCUGUUGUACUGCA [JR_ExcTheophyB_Sub010] | 72.4 | – | 200 | – | 124 |
| AGCCACUCGAGUGAUCCUCACGAGUGGCUACGAGGACCGGUACGGCCGCCACUCGAAUUAACAUGAGGAUCACCCAUGUAAUCUC [Brourdmod06] | 38.7 | – | 238 | 344 | – |
| AGCCAUGGAAACAUGGCGGCGGCUUGAGCGCGAGGACCGGUACGGCCGCCACUCGGGCAACAUGAGGAUCACCCAUGUUCCUCAU [ETA NP+V+V2 #19] | 64 | 113 | 104 | 75.7 | 190 |
| AGCGAUAUGCAUGAUACCAGCUACAUGAGGAUCACCCAUGUGCGUCAGAAAUGACUGUGUAGCCCUUGGCAGCAUAAAGCAUGUA [Exclusion - Theophylline B (Freestyle 10)] | 32.3 | – | 50.7 | – | 38.5 |
| AGCGAUAUGCAUGAUACCAGCUACAUGAGGAUCACCCAUGUGCGUCAGUAAUGACUGUGUAGCCCUUGGCAGCAUAGAGCAUGUA [Exclusion - Theophylline B (Freestyle 12)] | 29.5 | – | 47.2 | – | 34.7 |
| AGCGUUCGGUUUAUGCCGGACAAUGGGUGACGAGGACCGGUACGGCCGCCACUCGGGCGCCCGGUUACAUGAGGAUCACCCAUGU [Oresrile] | 74.3 | – | 190 | 200 | – |
| AGCUCAUAGAGUGAUACCAGACUACAUGAGGAUCACCCAUGUUUCUUUUGGUUAUCAUGUGUCCCUUGGCAGCACAAGAAGAGCA [JR_ExcTheophyB_Sub015] | 13.4 | – | 20.2 | – | 12.7 |
| AGCUCGCAUCCUCUAGCGUCAAAGACGCGUCGAGGACCGGUACGGCCGCCACUCGACUUGAGGAUCACCCAGGUCAAAGCGAGCA [TrypAX 13 #SwitchBubble #AlternativeMS2 #MS2Late #CuTurnoff] | 148 | 545 | 488 | 631 | 138 |
| AGGUGCGGCACGGCCGCCACUGCGGUGGUGUGACAUGAGGAUCACCCAUGUUGUCAUGCGGCCCUUAGGACCGGGUGGCGUGCCU [#1 Exclusion - Tryptophan B Attempt #16 (HarryS)] | 27.9 | – | 64.4 | 68.9 | – |
| AGUACUCGAACGGAUACCAGCCGGACAUGAGGAUCACCCAUGUCCUACCAUGUUUCGGUUGGCCCUUGGCAGCCGUUCGUGUACA [Omei Theo B SS A v1] | 207 | – | 428 | – | 736 |
